Article PMC5984536

Biological target: actin filaments (F-actin) assembled in vitro from DyLight-labeled actin and biotinylated actin (UniProt P68135)
Assay: TIRF microscopy of cofilin-EGFP on single actin filaments

cofilin-EGFP (recombinant mouse cofilin tagged on its C terminus) (from UniProt P18760 1-166) (natural protein)
average density of cofilin on stuck F-actin against that on mDia1(−) F-actin: 35 % lower
